Reference: patent US20240350583A1, “COMPOSITION FOR PREVENTING OR TREATING FIBROTIC DISEASES, COMPRISING HAPLN1” (Chung Ang University Industry Academic Cooperation …, priority 2021, published 2024)

B1: rhHAPLN1: recombinant human HAPLN1 protein of SEQ ID NO: 1 produced in CHO-K1 cells, stabilized in acetic acid buffer, sucrose, PS80, pH 5.0 (protein, listed as Homo sapiens)
chain: MKSLLLLVLISICWADHLSDNYTLDHDRAIHIQAENGPHLLVEAEQAKVFSHRGGNVTLPCKFYRDPTAFGSGIHKIRIKWTKLTSDYLKEVDVFVSMGYHKKTYGGYQGRVFLKGGSDSDASLVITDLTLEDYGRYKCEVIEGLEDDTVVVALDLQGVVFPYFPRLGRYNLNFHEAQQACLDQDAVIASFDQLYDAWRGGLDWCNAGWLSDGSVQYPITKPREPCGGQNTVPGVRNYGFWDKDKSRYDVFCFTSNFNGRFYYLIHPTKLTYDEAVQACLNDGAQIAKVGQIFAAWKILGYDRCDAGWLADGSVRYPISRPRRRCSPTEAAVRFVGFPDKKHKLYGVYCFRAYN

Key:
[1] = test system: human kidney renal tubule cell (Human Kidney 2, HK-2); assay: Cell morphological changes of TGFβ1-treated HK-2 cells; format: cell-based; conditions: TGFβ1 10 ng/ml 24 h
Procedure: (1) Human kidney renal tubule cells (HK-2) were seeded (3.0×10^5 cells/well) in a 6-well plate according to the experimental scheme of FIG. 8A and incubated in RPMI 1640 Medium (11875-093, Gibco) including 10% FBS for 24 hours in an incubator at 37° C. 5% CO2.
(2) Afterwards, the plates were washed several times with PBS, and each well of the plate was treated with TGFβ1 (10 ng/ml) and incubated for 24 hours.
(3) Subsequently, the plates were then treated with the composition of the present disclosure (rhHAPLN1 protein content of 0, 5, 10, 20, 50 and 100 ng/ml) and pirfenidone 0.2 mg/mL (200 μg/mL), respectively, and incubated for 24 hours.
(4) The wells containing each sample were then washed twice with 1×PBS, treated with 4% paraformaldehyde and fixed for 1 hour.
(5) After washing twice with 1×PBS, the shape or morphology of the cells was observed under a microscope.

[2] = test system: bleomycin-induced pulmonary fibrosis; conditions: orally once daily, 14-day and 28-day groups; cited from earlier work
[3] = test system: renal proximal tubule epithelial cell (RPTEC); assay: Age-induced fibrosis of RPTEC (passage 11), αSMA western blot; format: cell-based; conditions: aged cells (P11); rhHAPLN1 100 ng/ml; 72 hours
Procedure: (1) Renal proximal tubule epithelial cell (RPTEC) of the 3rd passage culture and 10th passage culture were seeded (5.0×10^5 cells) in 60Φ culture dishes and cultured in complete renal epithelial cell medium (ATCC PCS-400-030+ATCC PCS-400-040) in an incubator at 37° C. 5% CO2 for 24 hours.
(2) Subsequently, the cells were then treated with the composition of the present disclosure (rhHAPLN1 protein content of 0, 10, and 100 ng/ml, respectively) and cultured for an additional 72 hours.
(4) After washing three times with ice-cold PBS, each well was treated with 300 μl of RIPA lysis and extraction buffer including protease inhibitors and phosphatase inhibitors, scraped with a scraper to harvest cells, and transferred to an E-tube.
(5) By centrifugation (12000 rpm, 20 minutes, 4° C.), only the supernatant was obtained, and BCA assay was performed to obtain quantitative protein values.
(6) Using a 4% to 15% precast acrylamide PAGE gel, proteins were loaded at 20 μg per lane and run (80V-20 minutes, 120V-1 hour 30 minutes).
(7) Western blot was performed on the samples. Here, anti-αSMA Ab (Abcam, ab7817), anti-GAPDH Ab (Santa Cruz, sc-32233) were used as primary antibodies and HRP-conjugated anti-mouse IgG Ab (CST, #7076) as secondary antibodies.

[4] = test system: human hepatic stellate cell (HHSC); assay: TGFβ1-induced fibrosis of human hepatic stellate cells, αSMA western blot; format: cell-based
Procedure: (1) Human hepatic stellate cells (primary human hepatic stellate cell (HHSC; iXCells Biotechnologies, 10HU-210) were seeded (1.5×10^5 cells/well) in a 6-well plate according to the experimental scheme in FIG. 2A and incubated in stellate cell growth medium (iXCells Biotechnologies, MD-0014) in an incubator at 37° C. 5% CO2 for 24 hours.
(2) After replacing with serum-free DMEM medium, the medium was incubated for 24 hours.
(3) The plates were then treated with TGF31 (2 ng/ml) to induce fibrosis and incubated for 24 hours.
(4) Afterwards, each well of the plate was then treated with the composition of the present disclosure at rhHAPLN1 protein content of 0, 3, 10, 30, and 100 ng/ml and pirfenidone 100 μg/mL and 200 μg/mL, respectively, and incubated for 24 hours.
(5) Each sample was then treated with cell lysis buffer and harvested.
(6) Western blotting was performed on the samples. Here, anti-αSMA Ab (Abcam, ab7817), anti-GAPDH Ab (Santa Cruz, sc-32233) were used as primary antibodies and HRP-conjugated anti-mouse IgG Ab (CST, #7076) as secondary antibodies to confirm the protein expression levels of αSMA and GAPDH.

[5] = test system: MyOF system (differentiated lung myofibroblasts); assay: BioMAP Fibrosis panel, MyoF system, ELISA; format: cell-based
Source text: (§1) The anti-fibrotic action effect of the composition of the present disclosure on pulmonary fibrosis and kidney fibrosis was verified by examining the expression level of various fibrosis markers using the BioMAP Fibrosis Panel (provided by Eurofins discovery).
(§2) BioMAP Fibrosis panel consists of three models, SAEMyoF system (co-culturing small airway epithelial cells and adult fibroblasts), REMyOF system (co-culture of renal proximal tubule epithelial cells and adult fibroblasts), and MyOF system (differentiated lung myofibroblasts). Here, the SAEMyoF system represents interstitial lung diseases (IDL), including pulmonary fibrotic diseases such as idiopathic pulmonary fibrosis (IPF), and the REMyOF system represents kidney fibrosis disease, which is associated with end-stage renal failure. However, experiments were conducted to confirm the effect of the MyoF system only on myofibroblasts.
(§3) (1) Each primary cell was used by pooling cells from multiple donors (n=3 to 6), and cells were first cultured in 96-well plates to confluence before adding a peripheral blood mononuclear cell (PBMC).
(2) Subsequently, the cells were then each treated with the composition of the present disclosure (rhHAPLN1 protein content of 0, 3.7, 11, and 33 ng/ml) at different concentrations and cultured for 1 hour. […]
Each quantitative value was compared as a relative fold change compared to the vehicle control. […]

[6] = test system: REMyOF system (renal proximal tubule epithelial cells and adult fibroblasts); assay: BioMAP Fibrosis panel, REMyOF system (kidney fibrosis model), ELISA; format: cell-based
Source text: as §1, §2, §3
(2) Subsequently, the cells were then each treated with the composition of the present disclosure (rhHAPLN1 protein content of 0, 3.7, 11, and 33 ng/ml) at different concentrations and cultured for 1 hour.
(3) The plates were then treated with TNF and TGFβ1 and incubated for 48 hours.
(4) Direct enzyme-linked immunosorbent assay (ELISA) was performed on the expression levels of various biomarkers.
Each quantitative value was compared as a relative fold change compared to the vehicle control. Statistical processing was performed using unpaired t-test, significant differences vs vehicle control, *p<0.05, **p<0.01, and ***p<0.001.

Row | Molecule | cell morphology after TGFβ1-induced sharp fibrotic form (FIG. 8B) ([1]; then pirfenidone 0.2 mg/mL 24 h) | level of TGFβ1 increased by bleomycin [2] | level of periostin increased by bleomycin [2] | cell morphology after TGFβ1-induced sharp fibrotic form (FIG. 8B) ([1]; then rhHAPLN1 5-100 ng/ml 24 h) | decrease of expression amount of αSMA protein compared to composition without rhHAPLN1 (FIG. 9B) [3] | expression level of αSMA compared to composition that does not include rhHAPLN1 protein (FIG. 2C) ([4]; TGFβ1 (2 ng/ml) 24 h, then rhHAPLN1 3, 10, 30, 100 ng/ml 24 h) | anti-fibrotic action from αSMA western blot band, compared to pirfenidone (FIG. 2B) ([4]; all rhHAPLN1 contents, pirfenidone 100 and 200 μg/mL) | anti-fibrotic efficacy compared to pirfenidone at 100 μg/mL and 200 μg/mL ([4]; rhHAPLN1 3 ng/ml, αSMA) | rhHAPLN1 protein content showing the most excellent anti-fibrotic efficacy ([4]; αSMA) [ng/mL] | expression level of collagen I (MyoF system, FIG. 11C), fold change compared to vehicle control ([5]; in proportion to rhHAPLN1 content (3.7, 11, 33 ng/ml)) [fold] | expression level of collagen IV, fold change compared to vehicle control (FIG. 11C) ([5]; rhHAPLN1 33 ng/ml) [fold] | optimal concentration for anti-fibrotic efficacy in the kidney (assumed) ([6]; collagen I) [ng/mL] | expression level of collagen I, fold change compared to vehicle control (FIG. 11B) ([6]; regardless of rhHAPLN1 content (3.7, 11, 33 ng/ml)) [fold] | expression level of collagen I, fold change compared to vehicle control (FIG. 11B) ([6]; rhHAPLN1 11 ng/ml) [fold]
1 | Cc1ccc(=O)n(-c2ccccc2)c1 [pirfenidone, reference compound] | round | decreased | decreased | – | – | – | – | – | – | – | – | – | – | –
2 | B1 | – | – | – | the shape of the cells changed to round | about ⅓ | significantly lower | much better anti-fibrotic action compared to pirfenidone | much higher anti-fibrotic efficacy | 3 | ≤ 0.8 | 0.7 | 11 | ≤ 0.9 | ~0.7
